Measurements as given in patent US20140363428A1 (Chugai, published 2014).
Positions count from the first letter of the chain named. Names may count otherwise.

B1: Fv-4-F939 (antibody, human IgG1, kappa)
heavy: QVQLQESGPGLVKPSETLSLTCAVSGHSISHDHAWSWVRQPPGEGLEWIGFISYSGITNYNPSLQGRVTISRDNSKNTLYLQMNSLRAEDTAVYYCARSLARTTAMDYWGEGTLVTVSSASTKGPSVFPLAPSSKSTSGGTAALGCLVKDYFPEPVTVSWNSGALTSGVHTFPAVLQSSGLYSLSSVVTVPSSSLGTQTYICNVNHKPSNTKVDKKVEPKSCDKTHTCPPCPAPELRGGPKVFLFPPKPKDTLYISRTPEVTCVVVDVSHEDPEVKFNWYVDGVEVHNAKTKPREEQYNSTYRVVSVLTVLHQDWLNGKEYKCKVSNKALPAPIEKTISKAKGQPREPQVYTLPPSRDELTKNQVSLTCLVKGFYPSDIAVEWESNGQPENNYKTTPPVLDSDGSFFLYSKLTVDKSRWQQGNVFSCSVMHEALHYHVTQKSLSLSP
light: DIQMTQSPSSLSASVGDSVTITCQASTDISSHLNWYQQKPGKAPELLIYYGSHLLSGVPSRFSGSGSGTDFTFTISSLEAEDAATYYCGQGNRLPYTFGQGTKVEIERTVAAPSVFIFPPSDEQLKSGTASVVCLLNNFYPREAKVQWKVDNALQSGNSQESVTEQDSKDSTYSLSSTLTLSKADYEKHKVYACEVTHQGLSSPVTKSFNRGEC
B2: Fv-4-F1269 (antibody)
heavy: B1 heavy with H435D, Q440K, S442D
light: B1 light
B3: Fv-4-F1245 (antibody)
heavy: B1 heavy with S256T, T258E, Q440R, S442E
light: B1 light
notes: L235R/S239K/M252Y/S254T/T256E/N434Y/Y436V/Q438R/S440E (EU)
B4: Fv-4-F1243 (antibody)
heavy: B1 heavy with S256T, Q440R, S442E
light: B1 light
notes: L235R/S239K/M252Y/S254T/N434Y/Y436V/Q438R/S440E (EU)
B5: Fv-4-F1268 (antibody)
heavy: B1 heavy with H435D, Q440R, S442E
light: B1 light
B6: Fv-4-F1080 (antibody, human IgG1, kappa)
heavy: B1 heavy with R237L, K241S, S426N, V438Y
light: B1 light
notes: additional N-glycosylation found (++)
B7: Fv-4-F1081 (antibody, human IgG1, kappa)
heavy: B1 heavy with R237L, K241S, V438N, Q440T
light: B1 light
notes: as for B6
B8: Fv-4-F1077 (antibody, human IgG1, kappa)
heavy: B1 heavy with R237L, K241S, K250N, V438Y
light: B1 light
notes: as for B6
B9: Fv-4-F1082 (antibody, human IgG1, kappa)
heavy: B1 heavy with R237L, K241S, V438Y, Q440N
light: B1 light
notes: additional N-glycosylation found (+)
B10: Fv-4-F1097 (antibody, human IgG1, kappa)
heavy: B1 heavy with R237L, K241S, G387N, P389S, V438Y
light: B1 light
B11: Fv-4-F1094 (antibody)
heavy: B1 heavy with R237L, K241S, V438Y, S444N
light: B1 light
B12: Fv-4-F1096 (antibody, human IgG1, kappa)
heavy: B1 heavy with R237L, K241S, Q388T, V438Y
light: B1 light
B13: Fv-4-F1078 (antibody, human IgG1, kappa)
heavy: B1 heavy with R237L, K241S, E382N, E384S, V438Y
light: B1 light
B14: Fv-4-F1079 (antibody, human IgG1, kappa)
heavy: B1 heavy with R237L, K241S, E384N, N386S, V438Y
light: B1 light
B15: Fv-4-F1095 (antibody, human IgG1, kappa)
heavy: B1 heavy with R237L, K241S, S385N, G387S, V438Y
light: B1 light
B16: Fv-4-F11 (antibody, human IgG1, kappa)
heavy: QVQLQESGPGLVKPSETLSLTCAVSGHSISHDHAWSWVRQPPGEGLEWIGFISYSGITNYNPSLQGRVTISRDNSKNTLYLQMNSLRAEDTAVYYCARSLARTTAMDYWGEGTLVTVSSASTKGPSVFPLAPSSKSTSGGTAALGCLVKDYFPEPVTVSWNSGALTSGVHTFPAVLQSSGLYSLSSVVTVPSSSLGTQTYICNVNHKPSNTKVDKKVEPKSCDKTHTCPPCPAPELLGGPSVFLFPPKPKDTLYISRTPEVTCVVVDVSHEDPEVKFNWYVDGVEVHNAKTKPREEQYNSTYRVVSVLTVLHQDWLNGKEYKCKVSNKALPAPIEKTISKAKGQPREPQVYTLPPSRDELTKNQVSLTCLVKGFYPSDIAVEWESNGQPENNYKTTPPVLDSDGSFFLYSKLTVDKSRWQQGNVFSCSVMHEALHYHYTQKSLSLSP
light: B1 light
notes: M252Y/N434Y (EU)
B17: Fv-4-F1083 (antibody)
heavy: B1 heavy with R237L, K241S, V438Y, S442N
light: B1 light
B18: F1749 (antibody)
heavy: B1 heavy with Y254M, V438T, Q440R, S442D
light: B1 light
B19: F1752 (antibody)
heavy: B1 heavy with Y254M, H435D, V438T, Q440R, S442E
light: B1 light
B20: F1759 (antibody)
heavy: B1 heavy with R237L, K241S, Y254M, V438T, Q440K, S442D
light: B1 light
B21: F1763 (antibody)
heavy: B1 heavy with R237L, K241S, Y254M, H435D, V438T, Q440K, S442D
light: B1 light
B22: F1757 (antibody)
heavy: B1 heavy with R237L, K241S, Y254M, V438T, Q440R, S442D
light: B1 light
B23: F1751 (antibody)
heavy: B1 heavy with Y254M, V438T, Q440K, S442D
light: B1 light
B24: F1761 (antibody)
heavy: B1 heavy with R237L, K241S, Y254M, H435D, V438T, Q440R, S442D
light: B1 light
B25: F1753 (antibody)
heavy: B1 heavy with Y254M, H435D, V438T, Q440R, S442D
light: B1 light
B26: F1754 (antibody)
heavy: B1 heavy with Y254M, H435D, V438T, Q440K, S442E
light: B1 light
B27: F1750 (antibody)
heavy: B1 heavy with Y254M, V438T, Q440K, S442E
light: B1 light
B28: F1758 (antibody)
heavy: B1 heavy with R237L, K241S, Y254M, V438T, Q440K, S442E
light: B1 light
B29: F1756 (antibody)
heavy: B1 heavy with R237L, K241S, Y254M, V438T, Q440R, S442E
light: B1 light
B30: Fv-4-F1382 (antibody, human IgG1, kappa)
heavy: B1 heavy with R237L, K241S, Y254M, S428K, M430L, Y436S, V438Y
light: B1 light
B31: Fv-4-F1391 (antibody, human IgG1, kappa)
heavy: B1 heavy with R237L, K241S, Y254M, M430L, Y436S, V438N
light: B1 light
B32: Fv-4-F1380 (antibody, human IgG1, kappa)
heavy: B1 heavy with R237L, K241S, Y254M, S428D, M430L, Y436S, V438Y
light: B1 light
B33: Fv-4-F1383 (antibody, human IgG1, kappa)
heavy: B1 heavy with R237L, K241S, Y254M, S428R, M430L, Y436S, V438Y
light: B1 light
B34: Fv-4-F1390 (antibody, human IgG1, kappa)
heavy: B1 heavy with R237L, K241S, Y254M, M430L, Y436S, V438H
light: B1 light
B35: Fv-4-F1385 (antibody, human IgG1, kappa)
heavy: B1 heavy with R237L, K241S, Y254M, S428Q, M430L, Y436S, V438Y
light: B1 light
B36: Fv-4-F1389 (antibody, human IgG1, kappa)
heavy: B1 heavy with R237L, K241S, Y254M, M430L, Y436S, V438T
light: B1 light
notes: M428L/N434S/Y436T (EU)
B37: Fv-4-F1392 (antibody, human IgG1, kappa)
heavy: B1 heavy with R237L, K241S, Y254M, M430L, Y436S, V438K
light: B1 light
B38: Fv-4-F1384 (antibody, human IgG1, kappa)
heavy: B1 heavy with R237L, K241S, Y254M, S428A, M430L, Y436S, V438Y
light: B1 light
B39: Fv-4-F1381 (antibody, human IgG1, kappa)
heavy: B1 heavy with R237L, K241S, Y254M, S428E, M430L, Y436S, V438Y
light: B1 light
B40: Fv-4-F1386 (antibody, human IgG1, kappa)
heavy: B1 heavy with R237L, K241S, Y254M, S428Y, M430L, Y436S, V438Y
light: B1 light
B41: Fv-4-F1388 (antibody, human IgG1, kappa)
heavy: B1 heavy with R237L, K241S, Y254M, M430L, Y436S, V438F
light: B1 light

target: T1, soluble human FcRn (human, UniProt P55899 24-297; P61769 21-119); assay: SPR (Biacore), pH 7.0
T1 construct: Heterodimer of alpha chain and beta2-microglobulin; also called hFcRn
T1 sequence (P55899 24-297 limits assumed, chain 1 of 2): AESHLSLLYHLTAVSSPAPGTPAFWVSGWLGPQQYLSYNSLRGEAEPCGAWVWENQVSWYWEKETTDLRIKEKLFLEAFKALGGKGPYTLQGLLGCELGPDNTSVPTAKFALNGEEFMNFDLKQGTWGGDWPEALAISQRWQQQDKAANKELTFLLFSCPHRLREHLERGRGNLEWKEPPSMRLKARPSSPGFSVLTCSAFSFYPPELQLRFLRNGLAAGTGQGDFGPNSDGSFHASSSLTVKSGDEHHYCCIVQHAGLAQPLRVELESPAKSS
T1 sequence (P61769 21-119 limits assumed, chain 2 of 2): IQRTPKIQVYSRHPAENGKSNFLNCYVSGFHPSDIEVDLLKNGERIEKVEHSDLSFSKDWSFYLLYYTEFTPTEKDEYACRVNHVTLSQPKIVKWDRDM

B1 and B2 are within 1.5-fold of each other in Kd: 150 nM for the first, 170 nM for the second.

First: B3
Second: B4
The Kd of the first is 1.6-fold lower: 82 nM for the first, 130 nM for the second. The first binds more tightly here.

B5 was tested, and the Kd was 200 nM.

target: T1, soluble human FcRn; assay: SPR (Biacore), pH 7.0; remark: another data set of the same source

First: B6
Second: B7
The Kd of the first is 1.9-fold lower: 320 nM for the first, 620 nM for the second. The first binds more tightly here.

Going from B8 to B9, the Kd falls from 2000 nM to 280 nM (7.1-fold).

B10 and B11 are within 1.5-fold of each other in Kd: 280 nM for the first, 260 nM for the second.

Compared with B12, B13 is 1.7-fold higher in Kd: 270 nM for the first, 470 nM for the second. The first binds more tightly here.

B14 and B15 are within 1.5-fold of each other in Kd: 340 nM for the first, 290 nM for the second.

B16 and B17 are within 1.5-fold of each other in Kd: 330 nM for the first, 350 nM for the second.

target: T1, soluble human FcRn; assay: SPR (Biacore), pH 6.0

First: B18
Second: B19
The Kd of the first is 1.7-fold lower: 87 nM for the first, 150 nM for the second.

Compared with B20, B21 is 1.7-fold higher in Kd: 63 nM for the first, 110 nM for the second.

B22 and B23 are within 1.5-fold of each other in Kd: 72 nM for the first, 69 nM for the second.

B24 and B25 are the same in Kd: 130 nM for the first, 130 nM for the second.

First: B26
Second: B27
The Kd of the first is 1.7-fold higher: 120 nM for the first, 70 nM for the second. The second binds more tightly here.

B28 and B29 are within 1.5-fold of each other in Kd: 70 nM for the first, 80 nM for the second.

target: T1, soluble human FcRn; assay: SPR (Biacore), pH 6.0; remark: another data set of the same source

First: B30
Second: B31
The Kd of the first is 3.2-fold lower: 130 nM for the first, 420 nM for the second. The first binds more tightly here.

Compared with B32, B33 is 2.2-fold higher in Kd: 73 nM for the first, 160 nM for the second.

First: B34
Second: B35
The Kd of the first is 5.2-fold higher: 400 nM for the first, 77 nM for the second. The second binds more tightly here.

First: B36
Second: B37
The Kd of the first is 4-fold lower: 68 nM for the first, 270 nM for the second.

B38 and B39 are the same in Kd: 86 nM for the first, 86 nM for the second.

First: B40
Second: B41
The Kd of the first is 2-fold higher: 160 nM for the first, 80 nM for the second. The second binds more tightly here.
